# Measured values: article PMC13241479, “GPLD1 is a scavenger carrier mediating lysosomal degradation of extracellular aberrant proteins” (Life Science Alliance, 2026)
# T1: GPLD1-mCherry-sfGFP-His (glycosylphosphatidylinositol-specific phospholipase D1) (human, UniProt P80108 24-840)
# T1 construct: glycosylphosphatidylinositol-specific phospholipase D1, human, full-length cDNA amplified from HepG2 cells; fusion of about 160 kD; also called GPLD1-RG; GPLD1-RFP-GFP; not shown: mCherry, C-terminal, kept; sfGFP, C-terminal, kept; His, C-terminal, kept
# T1 sequence (looked up): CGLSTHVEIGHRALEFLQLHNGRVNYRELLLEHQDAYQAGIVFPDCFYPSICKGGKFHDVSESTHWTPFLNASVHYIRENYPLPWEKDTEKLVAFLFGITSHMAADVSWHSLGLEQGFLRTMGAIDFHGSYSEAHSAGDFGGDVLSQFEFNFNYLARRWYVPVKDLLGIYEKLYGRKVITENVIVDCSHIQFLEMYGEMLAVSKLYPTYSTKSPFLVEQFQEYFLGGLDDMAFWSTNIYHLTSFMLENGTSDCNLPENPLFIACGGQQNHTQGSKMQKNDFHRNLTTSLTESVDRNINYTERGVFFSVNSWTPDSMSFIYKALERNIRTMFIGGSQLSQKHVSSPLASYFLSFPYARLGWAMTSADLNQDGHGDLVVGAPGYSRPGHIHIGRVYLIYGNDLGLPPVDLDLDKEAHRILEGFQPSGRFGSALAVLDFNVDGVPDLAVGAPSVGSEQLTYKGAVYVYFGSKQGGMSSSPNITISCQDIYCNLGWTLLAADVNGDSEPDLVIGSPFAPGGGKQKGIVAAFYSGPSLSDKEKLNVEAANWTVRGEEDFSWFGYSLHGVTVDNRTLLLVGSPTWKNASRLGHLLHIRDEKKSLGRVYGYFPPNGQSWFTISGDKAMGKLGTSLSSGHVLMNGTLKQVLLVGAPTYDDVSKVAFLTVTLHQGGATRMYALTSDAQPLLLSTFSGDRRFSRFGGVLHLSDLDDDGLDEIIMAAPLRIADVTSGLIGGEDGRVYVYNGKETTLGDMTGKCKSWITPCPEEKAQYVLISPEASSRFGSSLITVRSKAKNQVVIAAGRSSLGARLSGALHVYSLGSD
# B1: His-ALFA-SAA1-N terminus (human SAA1 19-94 aa) (domain or fragment, UniProt P0DJI8 19-94, looked up)
# chain: RSFFSFLGEAFDGARDMWRAYSDMREANYIGSDKYFHARGNYDAAKRGPGGAWAAEVITDARENIQRFFGHGAEDS
# notes: serum amyloid A1, human, residues 19-94; the N-terminal 76 aa residues, the core amyloidogenic fragment; Prepared in 8 M urea-denatured form for all experiments; aggregates on dilution into PBS; also called His-ALFA-tagged SAA1-N; source: E. coli BL21(DE3) pLysS, purified from inclusion bodies under denaturing conditions (8 M urea, Co-NTA); not shown: His, N-terminal, kept; ALFA, N-terminal, kept
# B2: His-ALFA-SAA1-Full length (human SAA1 19-122 aa) (natural protein, UniProt P0DJI8 19-122, looked up)
# chain: RSFFSFLGEAFDGARDMWRAYSDMREANYIGSDKYFHARGNYDAAKRGPGGAWAAEVITDARENIQRFFGHGAEDSLADQAANEWGRSGKDPNHFRPAGLPEKY
# notes: The purification of the native full-length form is not described in the methods (only SAA1-N and Ab42 from inclusion bodies); source: E. coli BL21(DE3) pLysS, recombinant, used native; not shown: His, N-terminal, kept; ALFA, N-terminal, kept
# Molecular target: T1, GPLD1-mCherry-sfGFP-His …
# Test: co-IP; purified GPLD1-RG (40 nM) or clusterin-RG mixed with His-ALFA-SAA1 (500 nM) or ALFA-tagged Ab42 in PBS, 37°C with shaking for 2 h; aggregates removed at 20,000g; ALFA nanobody beads 2 h at 4°C; washed four times with PBS; immunoblot
# Conditions: both partners purified
row,Binder,binding result
1,B1,binds
2,B2,binds
